# Laboratory results from the Human Domainome abundance scans (Beltran et al. 2025).
# ± gives the uncertainty stated by the source.
# B1: Retinoic acid receptor beta, residues 85 to 161; numbered along this chain, P10826 (parent)
# chain: YKPCFVCQDKSSGYHYGVSACEGCKGFFRRSIQKNMIYTCHRDKNCVINKVTRNRCQYCRLQKCFEVGMSKESVRND
# B2: Dynamin-binding protein, residues 242 to 304; numbered along this chain, Q6XZF7 (parent)
# chain: EEPGTYGVALYRFQALEPNELDFEVGDKIRILATLEDGWLEGSLKGRTGIFPYRFVKLCPDTR
# Variants of: B1
# Assay: abundance fitness (aPCA) (normalised: wild type 0, dead -1); higher = more abundant; growth selection in yeast, the domain comes from the species named
# Conditions: Homo sapiens
row,Variant,abundance fitness
1,N76Y,0.046 ± 0.1
2,N76V,0.047 ± 0.054
3,D77A,-0.126 ± 0.063
4,D77N,-0.333 ± 0.1
5,D77M,0.007 ± 0.084
6,D77P,0.096 ± 0.073
7,D77E,0.125 ± 0.073
8,D77T,-0.348 ± 0.12
9,D77F,-0.183 ± 0.32
10,D77K,-0.082 ± 0.14
11,D77L,-0.202 ± 0.073
12,D77S,-0.093 ± 0.065
13,D77R,-0.194 ± 0.053
14,D77V,-0.054 ± 0.057
15,D77I,-0.06 ± 0.11
16,D77Q,0.066 ± 0.12
17,D77Y,0.044 ± 0.1
18,D77W,-0.347 ± 0.086
19,D77H,0.087 ± 0.16

# Variants of: B2
# Assay: as above
# Conditions: Homo sapiens
row,Variant,abundance fitness
1,D37M,-1.02 ± 0.34
2,D37C,-0.195 ± 0.059
3,D37A,-0.452 ± 0.074
4,G49V,-0.782 ± 0.088
5,G49D,-0.574 ± 0.11
6,L35I,-0.131 ± 0.063
7,F13P,-0.644 ± 0.14
8,F13D,-0.585 ± 0.086
9,F13K,-0.207 ± 0.15
10,F13V,-0.71 ± 0.076
11,F13S,-0.534 ± 0.063
12,F13H,0.559 ± 0.059
13,V56N,-0.711 ± 0.11
14,V56W,-0.826 ± 0.33
15,V56S,-0.719 ± 0.08
16,V56C,-0.864 ± 0.12
17,V56I,-0.141 ± 0.058
18,I29V,-0.533 ± 0.072
19,I29M,-0.735 ± 0.24
20,I29W,-0.823 ± 0.37
21,T34I,-0.168 ± 0.062
22,T34M,-0.086 ± 0.12
23,T62K,-0.267 ± 0.15
24,T62R,-0.046 ± 0.065
25,L21C,-0.851 ± 0.1

row,Variant,abundance fitness
1,L21Q,-0.455 ± 0.2
2,F51G,-0.85 ± 0.095
3,F51C,-0.748 ± 0.092
4,F51Y,-0.497 ± 0.066
5,G7R,-0.781 ± 0.1
6,G7Y,-0.661 ± 0.1
7,G7W,-1.27 ± 0.41
8,R47E,0.018 ± 0.11
9,A15Q,-0.787 ± 0.35
10,A15Y,-0.774 ± 0.11
11,K57A,-0.318 ± 0.072
12,K57S,-0.088 ± 0.038
13,K57I,-0.576 ± 0.071
14,G38S,-0.545 ± 0.07
15,R63F,-0.216 ± 0.089
16,R63L,-0.005 ± 0.083
17,P3A,-0.337 ± 0.1
18,P3C,-0.221 ± 0.077
19,P3S,0.008 ± 0.053
20,W39P,-0.738 ± 0.15
21,W39Q,-0.285 ± 0.17
22,W39Y,-0.135 ± 0.066
23,L10N,-0.827 ± 0.11
24,L10M,0.048 ± 0.094
25,G4H,0.131 ± 0.066

row,Variant,abundance fitness
1,G4E,0.622 ± 0.14
2,T48M,-0.916 ± 0.27
3,T48W,-0.977 ± 0.29
4,E2D,-0.151 ± 0.066
5,E2R,-0.321 ± 0.085
6,E2N,0.016 ± 0.068
7,E1Y,-0.23 ± 0.083
8,E1I,0.005 ± 0.077
9,I31W,-0.901 ± 0.36
10,I31H,-0.448 ± 0.097
11,E24T,-0.278 ± 0.086
12,E24R,-0.445 ± 0.07
13,E24N,-0.032 ± 0.059
14,Y11Q,0.026 ± 0.21
15,Y11C,-0.124 ± 0.061
16,V25P,-0.14 ± 0.081
17,V25G,-0.539 ± 0.064
18,A33R,0.033 ± 0.067
19,A33G,-0.201 ± 0.059
20,R54C,-0.373 ± 0.071
21,F23L,-0.136 ± 0.065
22,F23H,-0.787 ± 0.14
23,F23E,-0.94 ± 0.39
24,S43C,-0.245 ± 0.069
25,C59W,-0.324 ± 0.11

row,Variant,abundance fitness
1,C59K,-0.086 ± 0.22
2,C59E,-0.109 ± 0.11
3,P52V,-0.816 ± 0.095
4,D61F,-0.247 ± 0.047
5,D61H,-0.145 ± 0.059
6,L58P,-0.379 ± 0.092
7,L58M,-0.032 ± 0.1
8,D22E,0.043 ± 0.11
9,D22A,0.25 ± 0.058
10,D22T,-0.054 ± 0.062
11,K28F,-0.596 ± 0.096
12,K28E,-0.157 ± 0.13
13,K28A,-0.7 ± 0.1
14,K28H,-0.044 ± 0.087
15,E20K,-0.068 ± 0.11
16,I50C,-0.275 ± 0.055
17,I50S,-0.541 ± 0.066
18,I50K,0.153 ± 0.13
19,I50P,-0.973 ± 0.27
20,I50L,-0.383 ± 0.061
21,D27R,-0.79 ± 0.1
22,D27Q,-0.723 ± 0.23
23,D27V,-0.934 ± 0.12
24,D27L,-0.642 ± 0.092
25,L16M,0.242 ± 0.12

row,Variant,abundance fitness
1,L16Y,-0.137 ± 0.06
2,L32C,-0.657 ± 0.098
3,L32I,-0.19 ± 0.06
4,V8C,-0.531 ± 0.099
5,V8W,-0.738 ± 0.2
6,V8A,-0.691 ± 0.13
7,V8G,-0.779 ± 0.092
8,R12S,-0.12 ± 0.051
9,R12H,-0.446 ± 0.11
10,G46L,-0.749 ± 0.059
11,A9K,-0.824 ± 0.26
12,G26F,-0.682 ± 0.09
13,G26T,-0.831 ± 0.14
14,F55Y,0.079 ± 0.034
15,F55P,-0.818 ± 0.074
16,L40F,-0.393 ± 0.065
17,L40C,0.113 ± 0.048
18,L40W,-0.473 ± 0.13
19,L44I,-0.133 ± 0.074
20,L44S,-0.313 ± 0.072
21,L44H,-0.425 ± 0.15
22,E17G,0.072 ± 0.048
23,E17S,-0.062 ± 0.047
24,E17N,0.158 ± 0.054
25,E41L,-0.256 ± 0.074

row,Variant,abundance fitness
1,E41C,-0.115 ± 0.065
2,P18H,-0.291 ± 0.078
3,P18M,-0.419 ± 0.19
4,P18S,-0.113 ± 0.05
5,K45G,-0.113 ± 0.07
6,K45V,-0.728 ± 0.11
7,K45M,-0.317 ± 0.15
8,K45F,-0.32 ± 0.08
9,Y53W,0.108 ± 0.25
10,Y53D,0.227 ± 0.053
11,P60Q,0.087 ± 0.15
12,G42S,-0.846 ± 0.1
13,G42D,-0.578 ± 0.094
14,G42I,-0.707 ± 0.16
15,R30A,-0.155 ± 0.075
16,R30M,-0.651 ± 0.23
17,E36N,-0.156 ± 0.067
18,E36R,-0.331 ± 0.062
19,E36C,-0.434 ± 0.072
20,Q14C,-0.268 ± 0.067
21,Q14F,-0.413 ± 0.075
22,Q14R,-0.2 ± 0.061
23,Q14D,-0.264 ± 0.064
